# Assay results as given in the RNAGym collection of RNA variant scans (doi:10.7554/elife.90254).
# B1: LINE1-mini (parent)
# chain: GGCAGAGCUCAACACAGCGUGGCAAAGUGGCUGUGGCUAGACUGCC
# Variants of: B1
# Assay: self-cleavage, relative activity (ratio to wild type); higher = more cleavage; in vitro, sequencing; the parent is a self-cleaving ribozyme
row,Variant,self-cleavage
1,GGCAGAGCUCAACACAUCGUGGCAGAGUGGCUGUGGCUAGACUGCC,0.07
2,GGCAGAGCUCAACACAUCGUGGCAUAGUGGCUGUGGCUAGACUGCC,0.12
3,GGCAGAGCUCAACACAUCGUGGCACAGUGGCUGUGGCUAGACUGCC,0.12
4,GGCAGAGCUCAACACAUCGUUGCAAAGUGGCUGUGGCUAGACUGCC,0.36
5,GGCAGAGCUCAACACAUCGUAGCAAAGUGGCUGUGGCUAGACUGCC,0.3
6,GGCAGAGCUCAACACAUCGUCGCAAAGUGGCUGUGGCUAGACUGCC,1.31
7,GGCAGAGCUCAACACAUCGUGGCAAAGUGGCUGUGACUAGACUGCC,0.09
8,GGCAGAGCUCAACACAUCGUGGCAAAGUGGCUGUGCCUAGACUGCC,0.09
9,GGCAGAGCUCAACACAUCGUGGCAAAGUGGCUGUGUCUAGACUGCC,0.05
10,GGCAGAGCUCAACACACCGUGGCAAAGUCGCUGUGGCUAGACUGCC,0.34
11,GGCAGAGCUCAACACACCGUGGCAAAGUUGCUGUGGCUAGACUGCC,0.32
12,GGCAGAGCUCAACACACCGUGGCAAAGUGGCCGUGGCUAGACUGCC,0.14
13,GGCAGAGCUCAACACACCGUGGCAAAGUGGCAGUGGCUAGACUGCC,0.07
14,GGCAGAGCUCAACACACCGUGGCAAAGUGGCGGUGGCUAGACUGCC,0.07
15,GGCAGAGCUCAACACAUCGUGGCGAAGUGGCUGUGGCUAGACUGCC,0.09
16,GGCAGAGCUCAACACAUCGUGGCCAAGUGGCUGUGGCUAGACUGCC,0.11
17,GGCAGAGCUCAACACAUCGUGGCUAAGUGGCUGUGGCUAGACUGCC,0.25
18,GGCAGAGCUCAACACAUCGUGGCAAAGUGGCUGUGGCUCGACUGCC,0.04
19,GGCAGAGCUCAACACAUCGUGGCAAAGUGGCUGUGGCUUGACUGCC,0.2
20,GGCAGAGCUCAACACAUCGUGGCAAAGUGGCUGUGGCUGGACUGCC,0.04
21,GGCAGAGCUCAACACAUCGUGGCAAAGUGGCUGUGGCUAAACUGCC,0.05
22,GGCAGAGCUCAACACAUCGUGGCAAAGUGGCUGUGGCUAUACUGCC,0.06
23,GGCAGAGCUCAACACAUCGUGGCAAAGUGGCUGUGGCUACACUGCC,0.17

row,Variant,self-cleavage
1,GGCAGAGCUCAACACAUCGUGGCAAAGAGGCUGUGGCUAGACUGCC,0.17
2,GGCAGAGCUCAACACAUCGUGGCAAAGCGGCUGUGGCUAGACUGCC,1.16
3,GGCAGAGCUCAACACACCGUGGCAAAGUGGCUGUGGCUAGACCGCC,0.08
4,GGCAGAGCUCAACACACCGUGGCAAAGUGGCUGUGGCUAGACAGCC,0.13
5,GGCAGAGCUCAACACAUCGUGGCAAAAUGGCUGUGGCUAGACUGCC,0.38
6,GGCAGAGCUCAACACAUCGUGGCAAACUGGCUGUGGCUAGACUGCC,0.22
7,GGCAGAGCUCAACACAUCGUGGCAAAUUGGCUGUGGCUAGACUGCC,0.35
8,GGCAGAGCUCAACACAUCGUGGCAAAGUGGCUGUGGCUAGUCUGCC,0.09
9,GGCAGAGCUCAACACAUCGUGGCAAAGUGGCUGUGGCUAGCCUGCC,0.1
10,GGCAGAGCUCAACACAUCGUGGCAAAGUGGCUGUGGCUAGGCUGCC,0.08
11,GGCAGAGCUCAACACACCGUGGCAAAGUGGCUGUGGCCAGACUGCC,0.15
12,GGCAGAGCUCAACACACCGUGGCAAAGUGGCUGUGGCAAGACUGCC,0.14
13,GGCAGAGCUCAACACACCGUGGCAAAGUGGCUGUGGCGAGACUGCC,0.03
14,GGCAGAGCUCAACACAUCGGGGCAAAGUGGCUGUGGCUAGACUGCC,0.12
15,GGCAGAGCUCAACACAUCGCGGCAAAGUGGCUGUGGCUAGACUGCC,0.64
16,GGCAGAGCUCAACACAUCGAGGCAAAGUGGCUGUGGCUAGACUGCC,0.16
17,GGCAGAGCUCAACACACCGUGGCAAAGUGGCUAUGGCUAGACUGCC,0.06
18,GGCAGAGCUCAACACACCGUGGCAAAGUGGCUUUGGCUAGACUGCC,0.06
19,GGCAGAGCUCAACACACCGUGGCAAAGUGGCUCUGGCUAGACUGCC,0.03
20,GGCAGAGCUCAACACAUCGUGACAAAGUGGCUGUGGCUAGACUGCC,0.26
21,GGCAGAGCUCAACACAUCGUGCCAAAGUGGCUGUGGCUAGACUGCC,0.61
22,GGCAGAGCUCAACACAUCGUGUCAAAGUGGCUGUGGCUAGACUGCC,0.67
23,GGCAGAGCUCAACACAUCGUGGCAAAGUGGCUGUGGCUAGACUGGC,0.05

row,Variant,self-cleavage
1,GGCAGAGCUCAACACAUCGUGGCAAAGUGGCUGUGGCUAGACUGAC,0.05
2,GGCAGAGCUCAACACAUCGUGGCAAAGUGGCUGUGGCUAGACUGUC,0.18
3,GGCAGAGCUCAACACAUCGUGGGAAAGUGGCUGUGGCUAGACUGCC,0.1
4,GGCAGAGCUCAACACAUCGUGGAAAAGUGGCUGUGGCUAGACUGCC,0.21
5,GGCAGAGCUCAACACAUCGUGGUAAAGUGGCUGUGGCUAGACUGCC,0.18
6,GGCAGAGCUCAACACAUCGUGGCAAAGUGUCUGUGGCUAGACUGCC,0.16
7,GGCAGAGCUCAACACAUCGUGGCAAAGUGACUGUGGCUAGACUGCC,0.82
8,GGCAGAGCUCAACACAUCGUGGCAAAGUGCCUGUGGCUAGACUGCC,0.59
9,GGCAGAGCUCAACACACCGUGGCAAAGUGGCUGUGGCUACACUGCC,0.05
10,GGCAGAGCUCAACACACCGUGGCAAAGUGGCUGUGGCUAAACUGCC,0.04
11,GGCAGAGCUCAACACACCGUGGCAAAGUGGCUGUGGCUAUACUGCC,0.07
12,GGCAGAGCUCAACACAUCGUGGCAAUGUGGCUGUGGCUAGACUGCC,0.04
13,GGCAGAGCUCAACACAUCGUGGCAAGGUGGCUGUGGCUAGACUGCC,0.1
14,GGCAGAGCUCAACACAUCGUGGCAACGUGGCUGUGGCUAGACUGCC,0.23
15,GGCAGAGCUCAACACAUCGUGGCAAAGUCGCUGUGGCUAGACUGCC,0.39
16,GGCAGAGCUCAACACAUCGUGGCAAAGUUGCUGUGGCUAGACUGCC,0.43
17,GGCAGAGCUCAACACAUCGUGGCAAAGUAGCUGUGGCUAGACUGCC,0.43
18,GGCAGAGCUCAACACAUCGUGGCAAAGUGGCUGUAGCUAGACUGCC,0.07
19,GGCAGAGCUCAACACAUCGUGGCAAAGUGGCUGUUGCUAGACUGCC,0.07
20,GGCAGAGCUCAACACAUCGUGGCAAAGUGGCUGUCGCUAGACUGCC,0.18
21,GGCAGAGCUCAACACACCGUGGCAAAGUGGCUGCGGCUAGACUGCC,0.09
22,GGCAGAGCUCAACACACCGUGGCAAAGUGGCUGGGGCUAGACUGCC,0.1
23,GGCAGAGCUCAACACACCGUGGCAAAGUGGCUGAGGCUAGACUGCC,0.07

row,Variant,self-cleavage
1,GGCAGAGCUCAACACACCGUGGCAAAGUGACUGUGGCUAGACUGCC,0.94
2,GGCAGAGCUCAACACACCGUGGCAAAGUGUCUGUGGCUAGACUGCC,0.05
3,GGCAGAGCUCAACACACCGUGGCAAAGUGCCUGUGGCUAGACUGCC,0.25
4,GGCAGAGCUCAACACACCGUGGCAAAGGGGCUGUGGCUAGACUGCC,1.62
5,GGCAGAGCUCAACACACCGUGGCAAAGAGGCUGUGGCUAGACUGCC,1.16
6,GGCAGAGCUCAACACACCGUGGCAAAGCGGCUGUGGCUAGACUGCC,0.36
7,GGCAGAGCUCAACACAUCGUGGCAAAGUGGCUGUGGCUAGACUGCA,0.13
8,GGCAGAGCUCAACACAUCGUGGCAAAGUGGCUGUGGCUAGACUGCG,0.12
9,GGCAGAGCUCAACACAUCGUGGCAAAGUGGCUGUGGCUAGACUGCU,0.16
10,GGCAGAGCUCAACACAUCGUGGCAAAGUGGCUUUGGCUAGACUGCC,0.05
11,GGCAGAGCUCAACACAUCGUGGCAAAGUGGCUCUGGCUAGACUGCC,0.02
12,GGCAGAGCUCAACACAUCGUGGCAAAGUGGCUAUGGCUAGACUGCC,0.06
13,GGCAGAGCUCAACACAUCGUGGCAAAGUGGCUGUGGCUAGAGUGCC,0.06
14,GGCAGAGCUCAACACAUCGUGGCAAAGUGGCUGUGGCUAGAAUGCC,0.05
15,GGCAGAGCUCAACACAUCGUGGCAAAGUGGCUGUGGCUAGAUUGCC,0.06
16,GGCAGAGCUCAACACACCGGGGCAAAGUGGCUGUGGCUAGACUGCC,0.14
17,GGCAGAGCUCAACACACCGCGGCAAAGUGGCUGUGGCUAGACUGCC,0.66
18,GGCAGAGCUCAACACACCGAGGCAAAGUGGCUGUGGCUAGACUGCC,0.55
19,GGCAGAGCUCAACACAUCGUGGCAAAGUGGCUGUGGCUAGACUUCC,0.06
20,GGCAGAGCUCAACACAUCGUGGCAAAGUGGCUGUGGCUAGACUCCC,0.05
21,GGCAGAGCUCAACACAUCGUGGCAAAGUGGCUGUGGCUAGACUACC,0.07
22,GGCAGAGCUCAACACAUCGUGGCAAAGUGGCUGUGGCUAGACUGCC,0.23
23,GGCAGAGCUCAACACAUCGUGGCAAAGUGGUUGUGGCUAGACUGCC,0.11

row,Variant,self-cleavage
1,GGCAGAGCUCAACACAUCGUGGCAAAGUGGAUGUGGCUAGACUGCC,0.88
2,GGCAGAGCUCAACACAUCGUGGCAAAGUGGGUGUGGCUAGACUGCC,1.67
3,GGCAGAGCUCAACACAUCGUGGCAAAGUGGCUGUGGUUAGACUGCC,0.05
4,GGCAGAGCUCAACACAUCGUGGCAAAGUGGCUGUGGAUAGACUGCC,0.1
5,GGCAGAGCUCAACACAUCGUGGCAAAGUGGCUGUGGGUAGACUGCC,0.03
6,GGCAGAGCUCAACACAUCUUGGCAAAGUGGCUGUGGCUAGACUGCC,0.14
7,GGCAGAGCUCAACACAUCAUGGCAAAGUGGCUGUGGCUAGACUGCC,0.78
8,GGCAGAGCUCAACACAUCCUGGCAAAGUGGCUGUGGCUAGACUGCC,1.08
9,GGCAGAGCUCAACACAUGGUGGCAAAGUGGCUGUGGCUAGACUGCC,0.12
10,GGCAGAGCUCAACACAUUGUGGCAAAGUGGCUGUGGCUAGACUGCC,0.12
11,GGCAGAGCUCAACACAUAGUGGCAAAGUGGCUGUGGCUAGACUGCC,0.18
12,GGCAGAGCUCAACACACCGUGGCAAAGUGGCUGUCGCUAGACUGCC,0.04
13,GGCAGAGCUCAACACACCGUGGCAAAGUGGCUGUUGCUAGACUGCC,0.03
14,GGCAGAGCUCAACACACCGUGGCAAAGUGGCUGUAGCUAGACUGCC,0.11
15,GGCAGAGCUCAACACACCGUGGCAAAGUGGCUGUGGCUAGACUCCC,0.05
16,GGCAGAGCUCAACACACCGUGGCAAAGUGGCUGUGGCUAGACUUCC,0.07
17,GGCAGAGCUCAACACACCGUGGCAAAGUGGCUGUGGCUAGACUACC,0.11
18,GGCAGAGCUCAACACACCGUGGCAAAGUGGCUGUGUCUAGACUGCC,0.08
19,GGCAGAGCUCAACACACCGUGGCAAAGUGGCUGUGACUAGACUGCC,0.09
20,GGCAGAGCUCAACACACCGUGGCAAAGUGGCUGUGCCUAGACUGCC,0.04
